Earlier results, collected in paper PMC3382066.
“And” between values parts separate entries of the source, which are not always exact repeats. Equal values may be shown once.

Legend:
calmodulin = calmodulin (UniProt P0DP23)
[1] = target: smooth muscle myosin truncated fragment (UniProt P35749)
[2] = target: smooth muscle myosin (unphosphorylated) (Gallus gallus) (UniProt P10587)
Chain of UniProt P10587 (P10587 2-1979): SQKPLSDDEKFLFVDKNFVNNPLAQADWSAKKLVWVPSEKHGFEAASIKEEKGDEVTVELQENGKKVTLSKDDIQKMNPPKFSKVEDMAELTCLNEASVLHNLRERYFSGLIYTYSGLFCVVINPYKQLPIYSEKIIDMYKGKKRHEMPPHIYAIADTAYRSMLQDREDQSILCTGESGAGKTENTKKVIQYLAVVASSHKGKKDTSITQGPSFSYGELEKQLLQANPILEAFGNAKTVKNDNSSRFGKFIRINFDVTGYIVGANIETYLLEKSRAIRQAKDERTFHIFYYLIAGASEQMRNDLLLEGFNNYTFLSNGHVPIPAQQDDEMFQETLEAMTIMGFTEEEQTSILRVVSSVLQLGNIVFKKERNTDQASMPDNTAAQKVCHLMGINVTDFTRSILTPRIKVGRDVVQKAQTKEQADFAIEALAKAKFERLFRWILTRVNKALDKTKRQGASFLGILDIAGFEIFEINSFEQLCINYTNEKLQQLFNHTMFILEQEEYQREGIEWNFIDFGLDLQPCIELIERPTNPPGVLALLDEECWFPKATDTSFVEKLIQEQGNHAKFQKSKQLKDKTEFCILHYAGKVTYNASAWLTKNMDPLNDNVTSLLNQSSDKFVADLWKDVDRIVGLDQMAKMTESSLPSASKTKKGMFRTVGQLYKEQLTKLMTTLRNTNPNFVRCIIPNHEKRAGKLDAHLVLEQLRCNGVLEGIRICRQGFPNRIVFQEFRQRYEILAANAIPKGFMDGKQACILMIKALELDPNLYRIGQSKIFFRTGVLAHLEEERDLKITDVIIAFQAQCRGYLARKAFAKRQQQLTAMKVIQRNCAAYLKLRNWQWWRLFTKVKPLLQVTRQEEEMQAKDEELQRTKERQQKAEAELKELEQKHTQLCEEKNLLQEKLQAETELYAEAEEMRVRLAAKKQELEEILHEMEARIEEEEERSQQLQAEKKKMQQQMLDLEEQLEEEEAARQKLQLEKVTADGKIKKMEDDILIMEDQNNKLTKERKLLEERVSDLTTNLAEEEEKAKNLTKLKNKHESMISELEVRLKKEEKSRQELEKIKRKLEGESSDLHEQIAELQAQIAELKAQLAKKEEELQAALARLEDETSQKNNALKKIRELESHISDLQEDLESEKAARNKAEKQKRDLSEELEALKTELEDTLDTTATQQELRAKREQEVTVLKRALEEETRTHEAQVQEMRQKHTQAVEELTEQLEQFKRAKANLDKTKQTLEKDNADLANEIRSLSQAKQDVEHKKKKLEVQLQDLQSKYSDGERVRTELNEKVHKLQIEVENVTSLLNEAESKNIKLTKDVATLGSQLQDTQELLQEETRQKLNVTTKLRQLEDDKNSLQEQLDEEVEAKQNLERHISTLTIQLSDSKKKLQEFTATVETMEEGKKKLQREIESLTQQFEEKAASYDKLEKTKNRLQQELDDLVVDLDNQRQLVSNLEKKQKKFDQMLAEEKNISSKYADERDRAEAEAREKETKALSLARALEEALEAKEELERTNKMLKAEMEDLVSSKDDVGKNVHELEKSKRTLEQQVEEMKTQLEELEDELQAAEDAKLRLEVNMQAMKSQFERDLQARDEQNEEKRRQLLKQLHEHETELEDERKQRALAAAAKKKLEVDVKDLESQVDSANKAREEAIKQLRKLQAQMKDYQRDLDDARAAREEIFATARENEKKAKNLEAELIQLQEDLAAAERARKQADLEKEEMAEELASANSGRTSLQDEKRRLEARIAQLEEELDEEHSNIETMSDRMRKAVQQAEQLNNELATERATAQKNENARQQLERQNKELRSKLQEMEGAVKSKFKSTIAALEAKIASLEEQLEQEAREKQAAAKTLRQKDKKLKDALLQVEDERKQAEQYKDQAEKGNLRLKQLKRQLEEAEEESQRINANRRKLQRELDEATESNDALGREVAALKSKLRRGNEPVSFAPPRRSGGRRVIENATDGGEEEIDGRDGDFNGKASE

Chain of UniProt P35749 (P35749 1-1175): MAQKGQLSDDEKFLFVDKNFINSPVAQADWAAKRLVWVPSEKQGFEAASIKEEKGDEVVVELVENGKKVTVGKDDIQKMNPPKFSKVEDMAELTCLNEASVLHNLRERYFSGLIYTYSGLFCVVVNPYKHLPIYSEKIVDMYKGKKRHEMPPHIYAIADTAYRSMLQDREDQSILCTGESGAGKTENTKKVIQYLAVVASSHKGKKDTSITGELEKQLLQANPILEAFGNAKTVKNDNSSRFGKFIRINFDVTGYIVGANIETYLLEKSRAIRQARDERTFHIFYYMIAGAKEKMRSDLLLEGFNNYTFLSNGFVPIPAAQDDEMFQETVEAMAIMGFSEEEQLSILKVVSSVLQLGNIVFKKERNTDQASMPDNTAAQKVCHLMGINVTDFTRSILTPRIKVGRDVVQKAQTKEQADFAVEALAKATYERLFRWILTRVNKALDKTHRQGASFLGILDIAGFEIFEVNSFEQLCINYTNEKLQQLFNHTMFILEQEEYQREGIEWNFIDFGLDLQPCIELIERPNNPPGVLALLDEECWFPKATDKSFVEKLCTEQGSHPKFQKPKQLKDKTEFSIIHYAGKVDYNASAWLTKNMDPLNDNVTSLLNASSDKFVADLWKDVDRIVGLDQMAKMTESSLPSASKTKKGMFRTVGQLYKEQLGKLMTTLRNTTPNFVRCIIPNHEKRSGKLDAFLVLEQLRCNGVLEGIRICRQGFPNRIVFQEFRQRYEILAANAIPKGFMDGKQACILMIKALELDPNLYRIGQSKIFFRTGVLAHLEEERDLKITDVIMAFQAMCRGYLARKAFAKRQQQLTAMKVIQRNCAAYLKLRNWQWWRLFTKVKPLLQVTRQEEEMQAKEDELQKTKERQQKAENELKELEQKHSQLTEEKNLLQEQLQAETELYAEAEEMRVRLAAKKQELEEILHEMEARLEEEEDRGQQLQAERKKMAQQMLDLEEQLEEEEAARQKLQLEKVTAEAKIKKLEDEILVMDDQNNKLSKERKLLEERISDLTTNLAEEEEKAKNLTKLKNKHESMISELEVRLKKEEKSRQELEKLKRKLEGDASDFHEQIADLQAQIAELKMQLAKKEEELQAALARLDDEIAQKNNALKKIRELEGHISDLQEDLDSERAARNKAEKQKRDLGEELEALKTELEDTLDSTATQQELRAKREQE
Chain of MLCK (P11799 935-1906): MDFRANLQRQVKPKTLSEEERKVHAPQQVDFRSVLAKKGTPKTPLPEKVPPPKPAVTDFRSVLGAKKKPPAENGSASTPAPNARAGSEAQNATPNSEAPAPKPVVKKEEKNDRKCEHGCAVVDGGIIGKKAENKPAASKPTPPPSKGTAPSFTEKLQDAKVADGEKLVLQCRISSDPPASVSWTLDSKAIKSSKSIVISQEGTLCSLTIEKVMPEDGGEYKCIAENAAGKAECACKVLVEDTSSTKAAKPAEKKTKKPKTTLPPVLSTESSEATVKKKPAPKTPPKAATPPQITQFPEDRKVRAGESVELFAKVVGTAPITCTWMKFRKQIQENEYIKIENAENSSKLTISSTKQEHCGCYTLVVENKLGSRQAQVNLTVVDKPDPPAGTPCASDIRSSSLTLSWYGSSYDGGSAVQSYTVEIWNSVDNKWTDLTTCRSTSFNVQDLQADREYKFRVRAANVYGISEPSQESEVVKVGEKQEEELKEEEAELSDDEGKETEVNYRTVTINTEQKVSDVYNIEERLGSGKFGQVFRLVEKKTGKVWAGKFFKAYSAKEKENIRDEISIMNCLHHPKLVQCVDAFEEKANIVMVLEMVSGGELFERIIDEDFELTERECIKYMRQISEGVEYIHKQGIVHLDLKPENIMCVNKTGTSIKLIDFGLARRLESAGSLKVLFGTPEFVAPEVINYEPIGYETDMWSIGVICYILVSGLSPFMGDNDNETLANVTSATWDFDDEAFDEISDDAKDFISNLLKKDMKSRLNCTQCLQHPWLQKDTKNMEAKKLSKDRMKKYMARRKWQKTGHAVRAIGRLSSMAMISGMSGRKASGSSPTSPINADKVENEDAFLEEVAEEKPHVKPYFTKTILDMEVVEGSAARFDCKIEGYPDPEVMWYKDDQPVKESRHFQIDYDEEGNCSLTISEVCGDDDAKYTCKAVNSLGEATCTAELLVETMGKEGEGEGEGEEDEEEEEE

MLCK N-terminal actin-binding region (from UniProt Q15746)
Kd (calmodulin): 5 µM

telokin telokin (from UniProt Q15746)
Ki [1]: 40 µM and 20 µM

MLCK (from UniProt P11799)
Kd [2]: 0.8 µM
